Laboratory results from paper PMC3322178 (Biochemistry, 2009).
Numbering of substitutions follows the chain as printed. Numbers in names are those of the source. Read-outs that look alike come from different tables or passages of the source.

B1: GST-ASF(RRM2)-Q135A (domain or fragment, human, UniProt Q07955 105-196, looked up)
chain: GGAPRGRYGPPSRRSENRVVVSGLPPSGSWADLKDHMREAGDVCYADVYRDGTGVVEFVRKEDMTYAVRKLDNTKFRSHEGETAYIRVKVDG
B2: GST-ASF(RRM2)-R154A (domain or fragment, human, UniProt Q07955 105-196, looked up)
chain: B1 chain with A31Q, R50A
B3: GST-ASF(RRM2)-W134A (domain or fragment, human, UniProt Q07955 105-196, looked up)
chain: B1 chain with W30A, A31Q
B4: GST-ASF(RS), ASF/SF2 RS domain residues 183-248 (domain or fragment, human, UniProt Q07955 183-248, looked up)
chain: HEGETAYIRVKVDGPRSPSYGRSRSRSRSRSRSRSRSNSRSRSYSPRRSRGSPRYSPRHSRSRSRT
B5: GST-ASFΔβ4ΔRS (residues 1-179) (domain or fragment, human, UniProt Q07955 1-179, looked up)
chain: MSGGGVIRGPAGNNDCRIYVGNLPPDIRTKDIEDVFYKYGAIRDIDLKNRRGGPPFAFVEFEDPRDAEDAVYGRDGYDYDGYRLRVEFPRSGRGTGRGGGGGGGGGAPRGRYGPPSRRSENRVVVSGLPPSGSWQDLKDHMREAGDVCYADVYRDGTGVVEFVRKEDMTYAVRKLDNTK

Assays:
[1] = target: ASF/SF2 (Homo sapiens) (UniProt Q07955); conditions: cited from earlier work
[2] = target: T1, His-SRPK1(FL), full length SR protein kinase 1 (UniProt Q96SB4 1-655); assay: pull-down
[3] = target: T1, His-SRPK1(FL), full length SR protein …; assay: pull-down; remark: listed apart in the source

| Molecule | binding result [2] | binding result [3] | also measured |
| --- | --- | --- | --- |
| SRPK1 (from UniProt Q96SB4) |  |  | Kd [1]: 50 nM |
| B1 | binds |  |  |
| B2 |  | binds |  |
| B3 | binds |  |  |
| B4 |  | binds |  |
| B5 | binds |  |  |
